Measured values taken from patent US20140315986A1.

Molecular target: IL-6R (UniProt P08887)
Assay: cell-based or functional assay

Chain of IL-6R (P08887 20-468 limits assumed): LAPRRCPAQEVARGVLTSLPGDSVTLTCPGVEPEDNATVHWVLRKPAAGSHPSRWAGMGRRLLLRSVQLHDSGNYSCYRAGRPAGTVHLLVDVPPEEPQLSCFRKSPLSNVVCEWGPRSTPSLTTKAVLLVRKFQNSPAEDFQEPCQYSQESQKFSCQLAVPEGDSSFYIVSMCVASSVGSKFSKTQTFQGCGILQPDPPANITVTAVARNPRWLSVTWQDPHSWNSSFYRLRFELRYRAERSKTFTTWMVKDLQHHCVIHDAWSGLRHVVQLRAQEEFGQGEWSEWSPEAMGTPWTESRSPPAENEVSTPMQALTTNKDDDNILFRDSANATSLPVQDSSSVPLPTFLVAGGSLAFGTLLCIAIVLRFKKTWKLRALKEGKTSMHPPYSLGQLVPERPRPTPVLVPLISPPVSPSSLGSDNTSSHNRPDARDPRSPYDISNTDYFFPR

Relative IL-6 Inhibition (%) of IL-6-dependent U266B1 cell proliferation, Tocilizumab at 1 µg/mL (6.7 × 10^-9 M): 15.1%
Relative IL-6 Inhibition (%) of IL-6-dependent U266B1 cell proliferation, Tocilizumab at 10 µg/mL (6.7 × 10^-8 M): 60.7%
Relative IL-6 Inhibition (%) of IL-6-dependent U266B1 cell proliferation, Tocilizumab at 100 µg/mL (6.7 × 10^-7 M): 57%
Substance: Tocilizumab (antibody)
